The target in the assay is His-Tagged human CD38 (recombinant) (human, UniProt P28907 1-300). Briefly: SPR. For orientation: Surface plasmon resonance follows binding to a sensor surface in real time, without labels.

Starred links: 1 amine or outer side, 2 acyl side, 3 side chain; linkers in the order of their positions; H or OH if unused. Positions of bridges follow the written chain, without caps; N, C: chain ends. Primed or numbered codes have the meaning given here. *: point of attachment. NOTA = O=C(O)CN1CCN(CC(=O)O)CCN(CC(=O)*)CC1; TBMB = c1c(C[*:1])cc(C[*:3])cc1C[*:2]; PEG3′ = not defined here

Usually koff stands for the rate constant with which the complex falls apart. Turning to {NOTA-PEG3′}-ACVPCADFPIWYC-NH2 (linker 2-5-13 via TBMB (inferred)) [AJ206], the off-rate (koff) was 0.0006 s⁻¹.

(Values after PMC11040352 (2024).)
